This is an account of results in US20240369568A1 (GlaxoSmithKline, published 2024).

T1: BCMA (the 'Antigen' of the SPR antigen binding assay) (human, UniProt Q02223 1-54, limits assumed)
T1 construct: also called human BCMA
T1 sequence (looked up): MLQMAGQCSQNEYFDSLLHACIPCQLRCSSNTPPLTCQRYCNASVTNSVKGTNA

B1: purified DL2 drug-load variant of belantamab mafodotin (antibody, human IgG1, kappa)
heavy: not shown
light: not shown
modifications: mcMMAF on LC C214 of one of the two light chains (sequential numbering); mcMMAF on HC C224 of one of the two heavy chains (sequential numbering)
notes: Antibody drug conjugate, drug load of two; also called DL2a
B2: purified DL8 drug-load variant of belantamab mafodotin (antibody, human IgG1, kappa)
heavy: not shown
light: not shown
modifications: mcMMAF on each LC C214 (sequential numbering); mcMMAF on HC C224, HC C230 and HC C233 of both heavy chains (sequential numbering)
notes: Antibody drug conjugate, drug load of eight
B3: purified DL4a drug-load variant of belantamab mafodotin (antibody, human IgG1, kappa)
heavy: not shown
light: not shown
modifications: mcMMAF on each LC C214 (sequential numbering); mcMMAF on each HC C224 (sequential numbering)
notes: Antibody drug conjugate, drug load of four
B4: purified DL0 drug-load variant of belantamab mafodotin (unconjugated belantamab) (antibody, human IgG1, kappa)
heavy: not shown
light: not shown
notes: HIC-purified fraction of belantamab mafodotin
B5: purified DL4b drug-load variant of belantamab mafodotin (antibody, human IgG1, kappa)
heavy: not shown
light: not shown
modifications: mcMMAF on HC C230 and HC C233 of both heavy chains (sequential numbering)
notes: Antibody drug conjugate, drug load of four at the hinge

T2 sequence (P55899 24-297 limits assumed, chain 1 of 2): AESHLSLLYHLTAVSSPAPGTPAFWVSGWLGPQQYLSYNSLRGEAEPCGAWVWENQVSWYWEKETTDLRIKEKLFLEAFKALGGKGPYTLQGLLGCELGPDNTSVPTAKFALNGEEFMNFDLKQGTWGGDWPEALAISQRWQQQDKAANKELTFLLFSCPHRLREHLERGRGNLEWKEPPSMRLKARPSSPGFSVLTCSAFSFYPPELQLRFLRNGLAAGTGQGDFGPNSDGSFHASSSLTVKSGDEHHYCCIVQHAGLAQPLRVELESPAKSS
T2 sequence (P61769 21-119 limits assumed, chain 2 of 2): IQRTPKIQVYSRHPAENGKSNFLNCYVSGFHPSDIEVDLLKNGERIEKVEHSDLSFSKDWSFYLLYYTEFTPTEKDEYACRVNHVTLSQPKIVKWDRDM

The first experiment has as its target T2, FcRn (UniProt P55899 24-297; P61769 21-119, limits assumed).
T2 construct: also called FcRNn
The experiment is described as follows: SPR, release and stability method, specific binding activity. On the procedure: (§1) Antigen, FcγRIIIa, and FcRn specific binding activity of the purified DL variants was measured using SPR. Antigen, FcγRIIIa and FcRN analyses were performed using a release and stability surface plasmon resonance (SPR) method. The specific binding activities measured were between 80-110% for the purified DL variants. […] Despite the trend observed, the decrease in binding activity as a function of drug load is minimal and remains within specification acceptance criteria. It has been observed that as the DAR increases, there is no significant change in antigen FcγRIIIa binding by SPR and antibody-dependent cell-mediated cytotoxicity (ADCC) activity.
Background: SPR reads the build-up and loss of mass on a sensor chip optically.
As for B1, the “FcRNn Binding (%) (specific binding activity)” value (shortened to “FcRNn Binding (%)”) turned out to be 109%.

As to B2, the “FcRNn Binding (%)” value stood at 93%.

For the molecule B3, the “FcRNn Binding (%)” value was determined as 102%.

Consider B4, for which the “FcRNn Binding (%)” value came out at 108%.

With B5, the “FcRNn Binding (%)” value was 99%.

The target in the next experiment is T3, FcγRIIIa (UniProt P08637 17-208, limits assumed).
T3 construct: also called FcyRIIIa
T3 sequence (P08637 17-208 limits assumed): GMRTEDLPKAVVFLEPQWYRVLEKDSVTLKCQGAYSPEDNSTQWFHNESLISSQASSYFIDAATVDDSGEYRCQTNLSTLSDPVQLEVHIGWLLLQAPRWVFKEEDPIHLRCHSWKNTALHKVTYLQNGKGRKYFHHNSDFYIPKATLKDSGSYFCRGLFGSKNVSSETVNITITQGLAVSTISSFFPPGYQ
The experiment is described as above. On the procedure: as §1
For B1, the “FcyRIIIa Binding (%) (specific binding activity)” value (“FcyRIIIa Binding (%)” for short) worked out at 104%.

As for B2, the “FcyRIIIa Binding (%)” value amounted to 82%.

As to B3, the “FcyRIIIa Binding (%)” value was 103%.

Turning to B4, the “FcyRIIIa Binding (%)” value was 110%.

As for B5, the “FcyRIIIa Binding (%)” value was determined as 91%.

The target in a further experiment is T1, BCMA (the 'Antigen' of the SPR antigen …). The experiment is described as above. The method, then:
as §1
As for B1, the “Antigen Binding (%) (specific binding activity)” value (shortened to “Antigen Binding (%)”) is 99%.

As to B2, the “Antigen Binding (%)” value was determined as 86%.

As to B3, the “Antigen Binding (%)” value came to 95%.

For the molecule B4, the “Antigen Binding (%)” value amounted to 103%.

Turning to B5, the “Antigen Binding (%)” value turned out to be 90%.
